Laboratory results taken from PMC11227723.

Biological target: Tropomyosin receptor kinase B (human TrkB), stably expressed in NIH-3T3 cells (human) (UniProt Q16620)
UniProt Q16620, sequence (Q16620 32-822): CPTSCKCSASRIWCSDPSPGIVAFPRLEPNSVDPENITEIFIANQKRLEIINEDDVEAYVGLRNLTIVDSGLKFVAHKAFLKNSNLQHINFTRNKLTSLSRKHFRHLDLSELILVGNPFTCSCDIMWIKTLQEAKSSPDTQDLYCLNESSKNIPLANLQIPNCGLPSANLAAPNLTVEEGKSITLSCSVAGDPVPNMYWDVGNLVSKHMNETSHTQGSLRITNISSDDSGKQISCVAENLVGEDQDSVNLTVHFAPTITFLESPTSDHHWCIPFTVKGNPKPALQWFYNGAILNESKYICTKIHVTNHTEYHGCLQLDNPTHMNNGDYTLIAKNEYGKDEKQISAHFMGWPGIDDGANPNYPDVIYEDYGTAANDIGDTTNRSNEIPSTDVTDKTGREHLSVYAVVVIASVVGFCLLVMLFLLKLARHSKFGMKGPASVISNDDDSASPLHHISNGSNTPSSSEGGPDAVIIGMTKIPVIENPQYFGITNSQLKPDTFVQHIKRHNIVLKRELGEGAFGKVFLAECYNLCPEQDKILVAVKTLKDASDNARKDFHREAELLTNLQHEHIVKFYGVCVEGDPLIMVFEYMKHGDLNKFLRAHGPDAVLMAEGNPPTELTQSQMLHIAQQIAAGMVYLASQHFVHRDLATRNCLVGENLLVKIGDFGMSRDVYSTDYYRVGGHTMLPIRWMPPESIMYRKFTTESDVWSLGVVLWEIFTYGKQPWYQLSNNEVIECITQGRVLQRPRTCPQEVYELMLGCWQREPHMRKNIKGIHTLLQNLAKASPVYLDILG

TrkB phosphorylation (Western blot of phosphorylated and total TrkB) in NIH-3T3-TrkB cells after 20 min with BDNF (500 ng/mL), fold change against the untreated control: 1.87 fold change
Substance: Brain-derived neurotrophic factor (ligand)
